# Laboratory results taken from the supplement of paper PMC9112550, “Optimization of the antimicrobial peptide Bac7 by deep mutational scanning” (BMC Biology, 2022).
# Tested on: Escherichia coli TOP10
# Test: shrunken log2 fold change of peptide-encoding DNA abundance (4.5 h post-induction vs induction); higher = less antimicrobial activity (less host growth inhibition)
# Conditions: time post-induction: 4.5 h; library: site-saturation at positions 5, 18, 19, 20
# 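Note: peptides expressed intracellularly from a pBAD plasmid library in pooled LB shake-flask culture, induced with 0.3% L-arabinose, DNA abundance read by NGS, three biological replicates, DESeq2 with apeglm shrinkage.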
row,Sequence,shrunken log2 fold change
1,RRIRERPPRLPRPRPRPKDAPRP,-0.222
2,RRIRPRPPRLPRPRPRPTFDPRP,-0.0186
3,RRIRDRPPRLPRPRPRPAGFPRP,0.0112
4,RRIRFRPPRLPRPRPRPASMPRP,-0.146
5,RRIRSRPPRLPRPRPRPYMKPRP,-0.421
6,RRIRCRPPRLPRPRPRPGNTPRP,-0.205
7,RRIRCRPPRLPRPRPRPGREPRP,2.28
8,RRIRIRPPRLPRPRPRPDSQPRP,-0.0342
9,RRIRRRPPRLPRPRPRPQTCPRP,0.247
10,RRIRIRPPRLPRPRPRPAQSPRP,0.227
11,RRIRIRPPRLPRPRPRPNIPPRP,-0.818
12,RRIRPRPPRLPRPRPRPTMMPRP,-0.216
13,RRIRARPPRLPRPRPRPSQIPRP,0.0409
14,RRIRFRPPRLPRPRPRPCPTPRP,-0.0449
15,RRIRTRPPRLPRPRPRPLWIPRP,-0.331
16,RRIRIRPPRLPRPRPRPACMPRP,-0.0966
17,RRIRQRPPRLPRPRPRPILYPRP,0.0724
18,RRIRMRPPRLPRPRPRPLQHPRP,1.47
19,RRIRQRPPRLPRPRPRPPVFPRP,0.247
20,RRIRGRPPRLPRPRPRPYVMPRP,-0.0513
21,RRIRWRPPRLPRPRPRPTYKPRP,-0.467
22,RRIRWRPPRLPRPRPRPNIHPRP,-0.392
23,RRIRLRPPRLPRPRPRPAVQPRP,-0.249
24,RRIRARPPRLPRPRPRPYWFPRP,-0.775
25,RRIRIRPPRLPRPRPRPCWRPRP,0.157

row,Sequence,shrunken log2 fold change
1,RRIRFRPPRLPRPRPRPNCEPRP,0.194
2,RRIRKRPPRLPRPRPRPHKGPRP,-0.0331
3,RRIRERPPRLPRPRPRPIEHPRP,-0.00973
4,RRIRDRPPRLPRPRPRPYYDPRP,-0.621
5,RRIRWRPPRLPRPRPRPKPDPRP,0.115
6,RRIRYRPPRLPRPRPRPPWAPRP,0.449
7,RRIRNRPPRLPRPRPRPYELPRP,-0.0122
8,RRIRCRPPRLPRPRPRPIAHPRP,-0.0801
9,RRIRFRPPRLPRPRPRPVNFPRP,-0.39
10,RRIRFRPPRLPRPRPRPWHQPRP,-0.338
11,RRIRWRPPRLPRPRPRPMFLPRP,-0.182
12,RRIRDRPPRLPRPRPRPTQYPRP,-0.191
13,RRIRRRPPRLPRPRPRPNSCPRP,-0.0116
14,RRIRQRPPRLPRPRPRPWFEPRP,-0.00226
15,RRIRPRPPRLPRPRPRPIIGPRP,-0.0597
16,RRIRMRPPRLPRPRPRPLPAPRP,2.13
17,RRIRKRPPRLPRPRPRPKCFPRP,0.00084
18,RRIRMRPPRLPRPRPRPPVYPRP,0.167
19,RRIRWRPPRLPRPRPRPWQQPRP,-0.01
20,RRIRFRPPRLPRPRPRPPTRPRP,0.748
21,RRIRNRPPRLPRPRPRPMFIPRP,-0.383
22,RRIRQRPPRLPRPRPRPGIDPRP,0.0179
23,RRIRDRPPRLPRPRPRPVMGPRP,0.0247
24,RRIRIRPPRLPRPRPRPIPTPRP,-0.0342
25,RRIRIRPPRLPRPRPRPKQQPRP,0.0512

row,Sequence,shrunken log2 fold change
1,RRIRDRPPRLPRPRPRPQGKPRP,0.00439
2,RRIRTRPPRLPRPRPRPECRPRP,0.569
3,RRIRFRPPRLPRPRPRPDWTPRP,0.039
4,RRIRMRPPRLPRPRPRPGRHPRP,0.441
5,RRIRKRPPRLPRPRPRPQRSPRP,0.392
6,RRIRNRPPRLPRPRPRPVQFPRP,-0.124
7,RRIRQRPPRLPRPRPRPEGDPRP,0.00223
8,RRIRTRPPRLPRPRPRPIEIPRP,-0.0171
9,RRIRRRPPRLPRPRPRPYPYPRP,-0.0951
10,RRIRWRPPRLPRPRPRPFYHPRP,-0.0855
11,RRIRHRPPRLPRPRPRPRRCPRP,0.166
12,RRIRNRPPRLPRPRPRPGEEPRP,-0.0107
13,RRIRKRPPRLPRPRPRPSIWPRP,-0.0618
14,RRIRYRPPRLPRPRPRPQDQPRP,-0.21
15,RRIRNRPPRLPRPRPRPRSPPRP,2
16,RRIRGRPPRLPRPRPRPRPHPRP,0.51
17,RRIRHRPPRLPRPRPRPRKQPRP,0.11
18,RRIRYRPPRLPRPRPRPWIEPRP,-0.866
19,RRIRWRPPRLPRPRPRPEVFPRP,1.35
20,RRIRMRPPRLPRPRPRPGQGPRP,0.269
21,RRIRIRPPRLPRPRPRPVHHPRP,-0.732
22,RRIRTRPPRLPRPRPRPFQCPRP,-0.0173
23,RRIRFRPPRLPRPRPRPSEEPRP,-0.196
24,RRIRQRPPRLPRPRPRPNAHPRP,-0.18
25,RRIRLRPPRLPRPRPRPDTEPRP,-0.0195

row,Sequence,shrunken log2 fold change
1,RRIRVRPPRLPRPRPRPMEEPRP,0.215
2,RRIRGRPPRLPRPRPRPQGAPRP,0.807
3,RRIRVRPPRLPRPRPRPHPQPRP,-0.0987
4,RRIRKRPPRLPRPRPRPHKHPRP,-0.119
5,RRIRARPPRLPRPRPRPPFMPRP,0.376
6,RRIRCRPPRLPRPRPRPVTIPRP,-0.461
7,RRIRLRPPRLPRPRPRPPDGPRP,0.0617
8,RRIRLRPPRLPRPRPRPGGYPRP,-0.192
9,RRIRNRPPRLPRPRPRPSACPRP,-0.0258
10,RRIRRRPPRLPRPRPRPHDVPRP,0.0619
11,RRIRARPPRLPRPRPRPHYAPRP,-0.0521
12,RRIRFRPPRLPRPRPRPYFHPRP,-1.66
13,RRIRYRPPRLPRPRPRPYATPRP,-0.175
14,RRIRMRPPRLPRPRPRPFHCPRP,0.0959
15,RRIRNRPPRLPRPRPRPCVLPRP,-0.202
16,RRIRLRPPRLPRPRPRPKNAPRP,-0.238
17,RRIRDRPPRLPRPRPRPDNWPRP,-0.232
18,RRIRARPPRLPRPRPRPIHIPRP,-0.24
19,RRIRDRPPRLPRPRPRPSPMPRP,0.136
20,RRIRWRPPRLPRPRPRPHWHPRP,-0.0347
21,RRIRPRPPRLPRPRPRPKNFPRP,-0.262
22,RRIRLRPPRLPRPRPRPEPKPRP,0.238
23,RRIRQRPPRLPRPRPRPIIAPRP,0.00878
24,RRIRTRPPRLPRPRPRPTDYPRP,-0.263
25,RRIRTRPPRLPRPRPRPDAAPRP,0.424

row,Sequence,shrunken log2 fold change
1,RRIRVRPPRLPRPRPRPNQMPRP,-0.092
2,RRIRTRPPRLPRPRPRPENSPRP,0.032
3,RRIRARPPRLPRPRPRPQFKPRP,-0.0331
4,RRIRPRPPRLPRPRPRPVGAPRP,0.561
5,RRIRERPPRLPRPRPRPQQYPRP,-0.318
6,RRIRTRPPRLPRPRPRPNKEPRP,-0.00295
7,RRIRRRPPRLPRPRPRPAKVPRP,0.0346
8,RRIRKRPPRLPRPRPRPTYQPRP,-0.191
9,RRIRDRPPRLPRPRPRPHDCPRP,-0.0662
10,RRIRPRPPRLPRPRPRPFEGPRP,-0.0632
11,RRIRGRPPRLPRPRPRPMMIPRP,-0.0387
12,RRIRPRPPRLPRPRPRPAKIPRP,0.0125
13,RRIRPRPPRLPRPRPRPEIWPRP,0.374
14,RRIRSRPPRLPRPRPRPGMEPRP,0.148
15,RRIRFRPPRLPRPRPRPISQPRP,-0.588
16,RRIRSRPPRLPRPRPRPQCGPRP,-0.129
17,RRIRFRPPRLPRPRPRPMMTPRP,0.022
18,RRIRVRPPRLPRPRPRPNEMPRP,0.0222
19,RRIRKRPPRLPRPRPRPPIMPRP,-0.0359
20,RRIRERPPRLPRPRPRPRDNPRP,-0.321
21,RRIRSRPPRLPRPRPRPCFFPRP,-0.248
22,RRIRCRPPRLPRPRPRPVQKPRP,-0.0201
23,RRIRGRPPRLPRPRPRPMIEPRP,0.953
24,RRIRCRPPRLPRPRPRPKRAPRP,0.778
25,RRIRARPPRLPRPRPRPTSHPRP,-0.016
